Substitutions are numbered along the chain they refer to.
Assays:
[1] = target: T1, CTCF 11 ZF DNA binding domain (UniProt P49711 P49711:266-577); test: footprint; methylation interference on fragment 11: seven contact guanines (3 sense, 4 antisense); 55 bp core of 100 bp fragment printed; conditions: tags: pET16b-11ZF construct, TnT reticulocyte lysate (Promega)
T1 sequence: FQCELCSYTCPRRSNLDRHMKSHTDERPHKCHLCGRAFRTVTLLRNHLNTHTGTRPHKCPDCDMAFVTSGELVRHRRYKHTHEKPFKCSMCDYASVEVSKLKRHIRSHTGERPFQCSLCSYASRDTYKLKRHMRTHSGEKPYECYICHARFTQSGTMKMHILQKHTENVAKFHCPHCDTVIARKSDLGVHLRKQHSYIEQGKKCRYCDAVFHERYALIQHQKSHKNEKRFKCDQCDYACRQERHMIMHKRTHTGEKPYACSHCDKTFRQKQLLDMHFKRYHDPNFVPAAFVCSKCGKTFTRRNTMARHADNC
Protocol: (§1) Binding reactions were carried out in buffer containing standard PBS with 5 μM MgCl₂, 0.1 μM ZnSO4, 1 μM DTT, 0.1% NP40, and 10% glycerol in the presence of poly(deoxyinosinic-deoxy-CMP) and salmon sperm DNA. Reaction mixtures of 20 μL final volume were incubated for 30 minutes at room temperature and then analyzed on 5% nondenaturing gel using polyacrylamide gel electrophoresis (PAGE) in 0.5×TBE buffer. For EMSA with in vitro methylated DNA probes, treatment with the SssI-methylase was done as previously described for CTCF-binding fragments DMD4 and DMD7 of the H19 ICR (Kanduri et al., Curr. Biol., 10:853-856, 2000). The extent of methylation was verified by digestion overnight with Sau96I restriction endonuclease. Methylation interference analysis was carried out as described previously (Filippova et al., 1996; ibid).
To determine the contact guanine residues recognized by CTCF in gamma-satellite DNA, methylation interference assays (a method that identifies guanine residues in the CTCF binding site that make contact with CTCF zinc fingers) were conducted using a ³²P-labeled fragment of the gamma-satellite monomer (fragment #11). A strong interference of guanine methylation with CTCF-DNA binding was found in three and four guanine residues on sense and anti-sense strands, respectively (FIG. 5B). […]

[2] = target: T1, CTCF 11 ZF DNA binding domain; test: EMSA; mutation knocked down binding; conditions: tags: pET16b-11ZF construct, TnT reticulocyte lysate (Promega)
Protocol: as §1, with “Gamma-satellite monomers from human chromosome X and Y were PCR amplified from genomic DNA, cloned into TA vector and sequenced before their analysis by electrophoretic mobility gel-shift assay (EMSA). Binding” for “Binding”
To confirm in vitro mapping results, four guanine residues within the predicted core sequence were selectively mutated, as indicated in FIG. 12. […] To determine if CTCF binding is methylation-dependent, gamma-satellite 8 PCR fragments were methylated with a SssI methyltransferase. […] It is worth noting that in most previously reported cases, methylation prevents CTCF binding (Ohlsson et al., Trends Genet., 17:520-527, 2001).

[3] = target: T1, CTCF 11 ZF DNA binding domain; test: EMSA; among strongest binding; conditions: tags: pET16b-11ZF construct, TnT reticulocyte lysate (Promega); label: 32P
Protocol: as §1, with “Gamma-satellite monomers from human chromosome X and Y were PCR amplified from genomic DNA, cloned into TA vector and sequenced before their analysis by electrophoretic mobility gel-shift assay (EMSA). Binding” for “Binding”
Electrophoretic mobility shift assays (EMSA) were performed. A set of overlapping fragments corresponding to an 1′-mer of the human gamma 8, were radiolabeled and incubated with the in vitro translated 11 ZF DNA binding domain of the CTCF protein. Recombinant luciferase protein prepared by the same in vitro translation reaction was used as a negative control. […] The presence of CTCF-binding sites was also checked in the human alpha-satellite DNA array lacking anti-silencing (insulating) activity. None of 11 alpha-satellite monomers analyzed bound the CTCF protein in vitro.

[4] = target: Luciferase (in vitro translated control) (UniProt P08659 P08659:1-550); test: EMSA; negative control lysate; conditions: tags: Luciferase T7 control DNA (Promega); label: 32P
Chain of Luciferase (in vitro translated control) (P08659 whole entry, one chain of several): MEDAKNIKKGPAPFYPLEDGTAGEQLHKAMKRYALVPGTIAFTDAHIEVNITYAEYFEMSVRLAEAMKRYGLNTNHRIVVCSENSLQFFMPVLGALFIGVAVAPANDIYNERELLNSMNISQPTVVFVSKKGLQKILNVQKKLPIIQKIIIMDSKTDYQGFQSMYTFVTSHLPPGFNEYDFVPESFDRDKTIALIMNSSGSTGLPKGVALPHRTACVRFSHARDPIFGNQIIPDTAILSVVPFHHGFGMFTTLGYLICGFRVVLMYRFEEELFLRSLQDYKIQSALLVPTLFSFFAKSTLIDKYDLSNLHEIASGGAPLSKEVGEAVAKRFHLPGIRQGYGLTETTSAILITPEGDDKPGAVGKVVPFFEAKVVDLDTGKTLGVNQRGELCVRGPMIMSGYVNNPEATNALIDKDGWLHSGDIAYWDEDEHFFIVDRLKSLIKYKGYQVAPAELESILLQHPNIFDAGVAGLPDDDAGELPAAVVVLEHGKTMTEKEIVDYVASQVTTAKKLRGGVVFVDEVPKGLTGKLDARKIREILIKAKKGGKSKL
Protocol: as §1, with “Gamma-satellite monomers from human chromosome X and Y were PCR amplified from genomic DNA, cloned into TA vector and sequenced before their analysis by electrophoretic mobility gel-shift assay (EMSA). Binding” for “Binding”
(§2) Electrophoretic mobility shift assays (EMSA) were performed. A set of overlapping fragments corresponding to an 1′-mer of the human gamma 8, were radiolabeled and incubated with the in vitro translated 11 ZF DNA binding domain of the CTCF protein. […] None of 11 alpha-satellite monomers analyzed bound the CTCF protein in vitro.

[5] = target: T1, CTCF 11 ZF DNA binding domain; test: EMSA; among strongest binding; PBS, Mg, Zn, poly(dI-dC), room temperature; ~250 bp probe containing the monomer; conditions: tags: pET16b-11ZF construct, TnT reticulocyte lysate (Promega); label: 32P
Protocol: as §1, with “Gamma-satellite monomers from human chromosome X and Y were PCR amplified from genomic DNA, cloned into TA vector and sequenced before their analysis by electrophoretic mobility gel-shift assay (EMSA). Binding” for “Binding”
as §2

[6] = target: T1, CTCF 11 ZF DNA binding domain; test: EMSA; CpG methylation does not affect binding; conditions: tags: pET16b-11ZF construct, TnT reticulocyte lysate (Promega); label: 32P
Protocol: as §1, with “Gamma-satellite monomers from human chromosome X and Y were PCR amplified from genomic DNA, cloned into TA vector and sequenced before their analysis by electrophoretic mobility gel-shift assay (EMSA). Binding” for “Binding”
To confirm in vitro mapping results, four guanine residues within the predicted core sequence were selectively mutated, as indicated in FIG. 12. […] To determine if CTCF binding is methylation-dependent, gamma-satellite 8 PCR fragments were methylated with a SssI methyltransferase. […]

B1: gamma-satellite 8 monomer 8 WT-8 core (dsDNA)
DNA 1: CGAAAATGGGGCCACTGGGTGGCCTGAACGAGCCAAAGGGACTCAGGGTGACACT
DNA 2: AGTGTCACCCTGAGTCCCTTTGGCTCGTTCAGGCCACCCAGTGGCCCCATTTTCG
B1: binds [1].

B2: gamma-satellite 8 monomer 8 Mu2 (dsDNA)
DNA 1: B1 DNA 1 with G18A, C23T, C24T, C29T
DNA 2: B1 DNA 2 with G27A, G32A, G33A, C38T
B2: no binding [2].

B3: gamma-satellite 8 monomer 8 Mu3 (dsDNA)
DNA 1: B1 DNA 1 with C12T, C15T, G17A, C23T, C29T
DNA 2: B1 DNA 2 with G27A, G33A, C39T, G41A, G44A
B3: no binding [2].

B4: gamma-satellite 8 monomer 8 Mu1 (dsDNA)
DNA 1: B1 DNA 1 with G17A, G18A, G19A, C23T
DNA 2: B1 DNA 2 with G33A, C37T, C38T, C39T
B4: no binding [2].

B5: gamma-satellite 8 fragment 6 (monomer 5) (dsDNA)
DNA 1: CAAAAACAGTGCCGCAGTGTGGCCTGGGCGGGCCACAGGGACTCAGGGAGACGTTGAGG
DNA 2: CCTCAACGTCTCCCTGAGTCCCTGTGGCCCGCCCAGGCCACACTGCGGCACTGTTTTTG
B5: binds [3].

B6: gamma-satellite 8 fragment 5 (monomer 4) (dsDNA)
DNA 1: CAAAAACAAGGCCGCAGGGTGGCGTGGGCGGGCCGCAGGGACTCAGGTGGAAATTGTGG
DNA 2: CCACAATTTCCACCTGAGTCCCTGCGGCCCGCCCACGCCACCCTGCGGCCTTGTTTTTG
B6: binds [3].

B7: gamma-satellite 8 fragment 8 (monomer 6) (dsDNA)
DNA 1: AGACAACAGGGCGGCTGGATGGCATGGGCCGATCGTAGGAACCCAGGGAGACATTGAGG
DNA 2: CCTCAATGTCTCCCTGGGTTCCTACGATCGGCCCATGCCATCCAGCCGCCCTGTTGTCT
B7: binds [3].

B8: gamma-satellite 8 fragment 10 (monomer 7) (dsDNA)
DNA 1: TGAAAACAGGGAGGCAGGGTGGCATGGCCAGGCCGCAGGGACTATGGTGGACATTGTGG
DNA 2: CCACAATGTCCACCATAGTCCCTGCGGCCTGGCCATGCCACCCTGCCTCCCTGTTTTCA
B8: binds [3].

B9: gamma-satellite 8 fragment 11 (monomer 8) (dsDNA)
DNA 1: CGAAAATGGGGCCACTGGGTGGCCTGAACGAGCCAAAGGGACTCAGGGTGACACTGAGG
DNA 2: CCTCAGTGTCACCCTGAGTCCCTTTGGCTCGTTCAGGCCACCCAGTGGCCCCATTTTCG
B9: no binding [4]; binds [5].

B10: SssI-methylated gamma-satellite 8 fragment (dsDNA)
DNA 1: B9 DNA 1
DNA 2: B9 DNA 2
modifications: 5mC at CpG (SssI)
B10: binds [6].
